From the supplement of paper PMC10126150
± gives the standard deviation of the averaged measurements.

System: ATP
Test: switch fluorescence ratio, 500 uM ATP over buffer (Cy3 cluster intensity, sum of 5 cycles each) (fold (ratio)); higher = stronger signal-on switching upon ATP binding; sequences stand for … in TCGTCGGCAGCGTCAGATGTGTATAAGAGACAGTTTTTTTTTTTTTTTTTTTTTTTTT…TC
Details: aptamer strand: ATP DNA aptamer (quencher-CACCTGGGGGAGTATTGCGGAGGAAGG + anchor), 100 nM annealed; ATP concentration: 500 uM
Procedure, shortened: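 The quencher-labelled ATP aptamer, at 100 nM, was annealed to Cy3-labelled switching-strand clusters on a modified Illumina MiSeq flow-cell. The clusters were imaged in selection buffer, then after 15 min with 500 uM ATP at 22 °C, and this buffer/ATP cycle ran five times with NaOH stripping and re-annealing between runs. Per-cluster fluorescence ratios, summed target-cycle over summed buffer-cycle Cy3 intensity, were averaged per switch-domain sequence. Clusters outside 100-1000 RFU were excluded.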
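Further: ATP exposure 15 min at 22 °C before imaging.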

Row | Sequence | switch fluorescence ratio
1 | TGCCCATGGG | 0.9956 ± 0.0045
2 | TGCCCTATTT | 0.986 ± 0.025
3 | TGCCCTGCCT | 1.03 ± 0.024
4 | TGCCGACGGG | 1.01 ± 0.019
5 | TGCCGGAAGA | 1.02 ± 0.029
6 | TGCCGGATTT | 1.02 ± 0.018
7 | TGCCGGCTCG | 1.01 ± 0.012
8 | TGCCGGTTTT | 1.01 ± 0.036
9 | TGCCTATTTC | 1.02 ± 0.017
10 | TGCCTCAGGG | 1.08 ± 0.021
11 | TGCCTTATTA | 1.035 ± 0.0067
12 | TGCCTTTTCG | 1.02 ± 0.057
13 | TGCGAAAATT | 1.01 ± 0.08
14 | TGCGAATTCT | 1.03 ± 0.011
15 | TGCGAATTGT | 1.01 ± 0.012
16 | TGCGACATGT | 0.969 ± 0.027
17 | TGCGAGAAGG | 0.999 ± 0.011
18 | TGCGCAAAAG | 1.01 ± 0.012
19 | TGCGCATCTA | 1.038 ± 0.0098
20 | TGCGCCAACT | 1.06 ± 0.011
21 | TGCGCCCGGC | 1.031 ± 0.0027
22 | TGCGCCCGGG | 1.033 ± 0.0076
23 | TGCGCCGTGG | 1.02 ± 0.02

Row | Sequence | switch fluorescence ratio
24 | TGCGCTACGG | 1.08 ± 0.039
25 | TGCGGAAGTT | 1.01 ± 0.023
26 | TGCGGAGGGC | 1.01 ± 0.043
27 | TGCGGATGTT | 0.953 ± 0.013
28 | TGCGGCGGGT | 1.04 ± 0.012
29 | TGCGGGAAGT | 1 ± 0.014
30 | TGCGGGACT | 2.28 ± 1.8
31 | TGCGGGATGA | 1.04 ± 0.018
32 | TGCGGGCAAT | 1.1 ± 0.039
33 | TGCGGGGAGC | 0.975 ± 0.041
34 | TGCGGGGGAT | 1.02 ± 0.033
35 | TGCGGGGGTT | 1.02 ± 0.03
36 | TGCGGGGTCG | 1.01 ± 0.016
37 | TGCGGGTGTG | 1.03 ± 0.021
38 | TGCGGTAAAA | 1.03 ± 0.063
39 | TGCGGTTTAG | 1.04 ± 0.016
40 | TGCGTCAGGG | 0.974 ± 0.015
41 | TGCGTCTTTG | 1.01 ± 0.034
42 | TGCGTGCTGG | 0.985 ± 0.022
43 | TGCGTTATAA | 1.02 ± 0.022
44 | TGCGTTGGGG | 0.981 ± 0.019
45 | TGCGTTTGGG | 1.05 ± 0.064
46 | TGCGTTTTTA | 1 ± 0.043

Row | Sequence | switch fluorescence ratio
47 | TGCTAAATTA | 1.01 ± 0.011
48 | TGCTAATAGT | 1.028 ± 0.0074
49 | TGCTACAGGT | 1.04 ± 0.022
50 | TGCTAGACTG | 1.03 ± 0.09
51 | TGCTAGTTT | 0.98 ± 0.015
52 | TGCTATATGG | 0.994 ± 0.022
53 | TGCTATGAGG | 1.01 ± 0.043
54 | TGCTCACGGT | 1.02 ± 0.041
55 | TGCTCCTAAC | 1.3 ± 0.051
56 | TGCTGAGGGC | 1.01 ± 0.013
57 | TGCTGCAGTG | 0.966 ± 0.024
58 | TGCTGCGCTT | 1.14 ± 0.081
59 | TGCTGCTCAG | 1.01 ± 0.032
60 | TGCTGCTCGG | 0.973 ± 0.031
61 | TGCTGCTTTT | 0.943 ± 0.036
62 | TGCTGGCATG | 0.967 ± 0.014
63 | TGCTGGGGGA | 1.01 ± 0.025
64 | TGCTGGTATA | 0.983 ± 0.038
65 | TGCTGGTTGG | 0.998 ± 0.026
66 | TGCTGGTTTT | 1.01 ± 0.037
67 | TGCTGTGTTT | 1.02 ± 0.039
68 | TGCTGTTGTA | 0.998 ± 0.033
69 | TGCTGTTTAC | 1.2 ± 0.28

Row | Sequence | switch fluorescence ratio
70 | TGCTTACTTT | 1.33 ± 0.58
71 | TGCTTCCGAA | 1.52 ± 0.082
72 | TGCTTCTAAC | 1.006 ± 0.0082
73 | TGCTTGCTTT | 1.004 ± 0.01
74 | TGCTTGGCTA | 0.98 ± 0.033
75 | TGCTTTGGGG | 0.982 ± 0.071
76 | TGCTTTTTAA | 1.03 ± 0.063
77 | TGGAAAAACT | 1.08 ± 0.029
78 | TGGAAACCGG | 1.009 ± 0.0055
79 | TGGAAAGGGG | 1.01 ± 0.014
80 | TGGAAAGTGT | 0.987 ± 0.018
81 | TGGAAATAAG | 1.03 ± 0.047
82 | TGGAAATTGG | 1.01 ± 0.02
83 | TGGAAATTGT | 0.9944 ± 0.0077
84 | TGGAAATTTT | 1 ± 0.038
85 | TGGAAGCGTC | 1.02 ± 0.022
86 | TGGAAGGGAG | 0.9738 ± 0.0083
87 | TGGAAGGGGA | 1 ± 0.013
88 | TGGAAGGGGC | 1.04 ± 0.035
89 | TGGAAGTTGG | 0.989 ± 0.023
90 | TGGAATAATT | 1.003 ± 0.0081
91 | TGGAATACG | 1.35 ± 0.036
92 | TGGAATATTC | 1.04 ± 0.011

Row | Sequence | switch fluorescence ratio
93 | TGGAATATTT | 1.03 ± 0.044
94 | TGGAATGTTG | 1.02 ± 0.0078
95 | TGGAATTCGG | 1.02 ± 0.0061
96 | TGGAATTGTG | 1.05 ± 0.058
97 | TGGACAACTT | 0.995 ± 0.025
98 | TGGACCAAAA | 1.03 ± 0.013
99 | TGGACCGGTT | 1.034 ± 0.0016
100 | TGGACGCGCT | 1.01 ± 0.025
101 | TGGACGGGTT | 1.02 ± 0.014
102 | TGGACGTCGT | 0.987 ± 0.019
103 | TGGACGTGGG | 0.98 ± 0.052
104 | TGGACGTTGC | 1.03 ± 0.012
105 | TGGACTAGAA | 0.983 ± 0.042
106 | TGGACTCTGG | 0.973 ± 0.02
107 | TGGACTTAGG | 0.987 ± 0.03
108 | TGGAGAGGGA | 0.9805 ± 0.0078
109 | TGGAGAGGGT | 0.976 ± 0.0099
110 | TGGAGAGGTG | 1.02 ± 0.083
111 | TGGAGCTGCA | 1.04 ± 0.09
112 | TGGAGCTTGA | 1.02 ± 0.021
113 | TGGAGGAGGG | 1 ± 0.032
114 | TGGAGGATTG | 0.991 ± 0.016
115 | TGGAGGGCTT | 1.04 ± 0.021

Row | Sequence | switch fluorescence ratio
116 | TGGAGGGGAG | 0.9858 ± 0.0062
117 | TGGAGGGGTT | 1.02 ± 0.037
118 | TGGAGTTTTT | 0.985 ± 0.032
119 | TGGATACACT | 1.04 ± 0.032
120 | TGGATAGTGT | 0.998 ± 0.011
121 | TGGATATAGG | 1.03 ± 0.038
122 | TGGATATTTG | 0.983 ± 0.065
123 | TGGATCCCCA | 1.06 ± 0.091
124 | TGGATGAGCT | 0.9968 ± 0.0088
125 | TGGATGCTTG | 1.01 ± 0.045
126 | TGGATGGAAT | 0.961 ± 0.035
127 | TGGATGTATT | 1.28 ± 0.4
128 | TGGATGTTTA | 1.03 ± 0.024
129 | TGGATTATTG | 0.9445 ± 0.0019
130 | TGGATTGAGC | 0.967 ± 0.026
131 | TGGATTTTGC | 0.989 ± 0.029
132 | TGGCAACACC | 1.94 ± 1.2
133 | TGGCAATGGG | 1.05 ± 0.017
134 | TGGCAGGGGT | 1.56 ± 0.63
135 | TGGCAGGTTG | 1.01 ± 0.013
136 | TGGCCCCTAT | 0.962 ± 0.029
137 | TGGCCGGCTG | 1 ± 0.074
138 | TGGCCGGTGT | 0.991 ± 0.032

Row | Sequence | switch fluorescence ratio
139 | TGGCCGGTTT | 1.01 ± 0.011
140 | TGGCGAACGG | 1.01 ± 0.052
141 | TGGCGAAGTA | 1.01 ± 0.013
142 | TGGCGATAAT | 1.05 ± 0.031
143 | TGGCGCTGGG | 0.978 ± 0.022
144 | TGGCGGGGCG | 1.02 ± 0.038
145 | TGGCGGGGGA | 1.05 ± 0.042
146 | TGGCGGGTCG | 1.06 ± 0.079
147 | TGGCGGGTTA | 0.988 ± 0.067
148 | TGGCGGTGGT | 0.978 ± 0.017
149 | TGGCGGTTTT | 1.005 ± 0.0077
150 | TGGCTAAACG | 0.992 ± 0.019
151 | TGGCTGACAG | 0.992 ± 0.023
152 | TGGCTGTACA | 1.01 ± 0.025
153 | TGGCTGTTTT | 1.04 ± 0.042
154 | TGGCTTAGTT | 0.9956 ± 0.0026
155 | TGGCTTGCCG | 0.998 ± 0.027
156 | TGGCTTTTGT | 1.44 ± 0.63
157 | TGGGAAAATG | 1.018 ± 0.0069
